{"source": "paper doi:10.1101/205575", "key": {"[1]": {"tested_on": "AsCpf1 (Cas12a) (Acidaminococcus sp.?)", "experiment": "smFRET titration", "conditions": "amino-dT in non-target strand, pH 8.0 ([…]) or pH 7.0 ([…]"}, "FnCpf1 (Cas12a)": {"tested_on": "FnCpf1 (Cas12a)", "experiment": "smFRET titration", "conditions": "amino-dT in non-target strand, pH 8.0 ([…]) or pH 7.0 ([…]"}}, "data": [{"substance": "cognate DNA target (nPD=0) with Cy5 guide-RNA", "values": [{"measurement": "Kd", "setting": "[1]", "result": 0.1, "unit": "nM"}, {"measurement": "Kd", "setting": "FnCpf1 (Cas12a)", "result": 0.27, "unit": "nM"}]}]}
